Test results as given in paper PMC5703909, “Bactofilin-mediated organization of the ParABS chromosome segregation system in Myxococcus xanthus” (Nature Communications, 2017).

T1: His6-ParA (M. xanthus, UniProt Q1CVJ3 1-283)
T1 construct: DNA partitioning ATPase ParA of Myxococcus xanthus; Only soluble with ATP, which restricted the analyses to the dimeric form; also called ParA·ATP; purified ParA; source: E. coli Rosetta(DE3)pLysS with pAH17, purified (HisTrap HP) in the presence of magnesium-ATP
T1 sequence (looked up): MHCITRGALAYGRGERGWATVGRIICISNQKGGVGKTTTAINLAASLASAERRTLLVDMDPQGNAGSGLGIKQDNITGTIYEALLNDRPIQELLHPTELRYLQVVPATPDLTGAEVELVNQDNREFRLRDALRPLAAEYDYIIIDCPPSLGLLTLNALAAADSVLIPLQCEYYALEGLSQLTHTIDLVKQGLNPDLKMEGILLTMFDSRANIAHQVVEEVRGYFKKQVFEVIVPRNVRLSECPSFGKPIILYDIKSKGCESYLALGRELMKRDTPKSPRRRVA

B1: His6-PadC_(Δ1-281) (domain or fragment, M. xanthus, UniProt Q1D3H3 282-489, looked up)
chain: PEPEQRLSGRVTTVLLPLEKLQDESAFKLRPEGDVSGLATDIARLGQLFPVDVRPAGEDRYQLVCGFRRVAALRFLKRDAVQARIHLRLSDEDALVMSLAEAIHATPVGPEVLEAKRDELEAQGRLSAAVRDMLEKALATEDTLAPEGVEEEIDADELAQEVAQRLGAINQDLSLLADVFAALDESRKAELLMQLRYSSELVTYLEGL
modifications: biotinylated with EZ-Link NHS-PEG4-Biotin where it was loaded on the sensor
notes: PadC (MXAN_4634) of Myxococcus xanthus lacking residues 1-281; holds the ParB-like nuclease (ParBC) domain; no cleavage of the tag is described; also called PadCΔN; N-terminally truncated variant of PadC; source: E. coli Rosetta(DE3)pLysS with pMO002, purified (HisTrap HP, MonoQ)

Legend:
[1] = target: B1; experiment: BLI; BLItz, streptavidin (SAX) sensors loaded with biotinylated BacPC, PadCΔN as analyte; 25 mM HEPES/KOH pH 7.6, 100 mM KCl, 10 mM MgSO4, 1 mM DTT, 10 µM BSA, 0.01% Tween; details: both partners purified
[2] = target: T1, His6-ParA; experiment: BLI; BLItz, streptavidin (SAX) sensors loaded with biotinylated PadCΔN, ParA as analyte; BLItz binding buffer with 150 mM potassium glutamate, 5% glycerol and 10 mM ATP; details: both partners purified

| Kd [1] [nM] | Kd [2] [nM] | Binder |
| --- | --- | --- |
| 340 |  | His6-BacP_(Δ1-115) (domain or fragment, M. xanthus, UniProt Q1D3H2 116-240, looked up, biotinylated with EZ-Link NHS-PEG4-Biotin for loading on the sensor, bactofilin BacP of Myxococcus xanthus lacking residues 1-115 (the C-terminal extension); no cleavage of the tag is described; also called BacPC; C-terminal fragment of BacP; source: E. coli Rosetta(DE3)pLysS with pIB154, purified (HisTrap HP)) DVEPGRLPAERPAVVRPTAVTRPTATPARPTIPAARPMPPPPPSRPTPPPPPARPSAPPAVTRPSAPITRPGLGGLGSKPLPPPPPTRVERAEPQAGQAGSAEPPTPVLVGAGAKKKVVVKKKTR |
|  | 900 | B1 |
